# Molecular target: recombinant human α-synuclein (human) (UniProt P37840)
substance,measurement,value
amyloid-β 1-42 synthetic peptide,EC50 of the loss of synaptophysin (ELISA) in mouse cortical neurons incubated 24 hours with αSN premixed with Aβ1-42 (1:50); αSN alone 500 nM,25 nM

# Reference: PMC3017026
